Measured values taken from paper PMC8664846, “Heterogeneous dissociation process of truncated RNAs by oligomerized Vasa helicase” (Communications Biology, 2021).

Columns and labels:
[1] = target: the molecule itself; test: single-molecule fluorescence intensity counting (TIRF microscopy); TMR-labelled Vasa adsorbed on poly-L-lysine-coated glass; number of molecules in a spot from the intensity of a single TMR; 30 mM HEPES pH 7.3, 150 mM potassium acetate, 5 mM magnesium acetate, 0.1% NP-40, 500 uM TCEP, oxygen scavengers; with 5 ug/ml yeast RNA further oligomerization
[2] = target: T1, Siwi-piRISC (FLAG-Siwi loaded with piRNA) (Bombyx mori, UniProt A8D8P8 1-899); test: single-molecule two (or three)-colour colocalisation (TIRF microscopy); premix of 10 nM biotinylated ATTO647N target RNA, 625 nM TMR-Vasa and 380 nM Siwi fixed on the surface by avidin-biotin through the target RNA; exogenous piRNA-4; assay buffer with oxygen scavenger; no ATP; settings: both partners purified
T1 construct: Siwi (Silkworm Piwi), PIWI protein of Bombyx mori; In the assay Siwi carried piRNA (exogenous piRNA-4) and was held on the glass through the biotinylated, ATTO647N-labelled target RNA; the only protein chain is Siwi; also called Silkworm Piwi; source: BmN4 cells, purified (anti-FLAG gel column)
T1 sequence (looked up): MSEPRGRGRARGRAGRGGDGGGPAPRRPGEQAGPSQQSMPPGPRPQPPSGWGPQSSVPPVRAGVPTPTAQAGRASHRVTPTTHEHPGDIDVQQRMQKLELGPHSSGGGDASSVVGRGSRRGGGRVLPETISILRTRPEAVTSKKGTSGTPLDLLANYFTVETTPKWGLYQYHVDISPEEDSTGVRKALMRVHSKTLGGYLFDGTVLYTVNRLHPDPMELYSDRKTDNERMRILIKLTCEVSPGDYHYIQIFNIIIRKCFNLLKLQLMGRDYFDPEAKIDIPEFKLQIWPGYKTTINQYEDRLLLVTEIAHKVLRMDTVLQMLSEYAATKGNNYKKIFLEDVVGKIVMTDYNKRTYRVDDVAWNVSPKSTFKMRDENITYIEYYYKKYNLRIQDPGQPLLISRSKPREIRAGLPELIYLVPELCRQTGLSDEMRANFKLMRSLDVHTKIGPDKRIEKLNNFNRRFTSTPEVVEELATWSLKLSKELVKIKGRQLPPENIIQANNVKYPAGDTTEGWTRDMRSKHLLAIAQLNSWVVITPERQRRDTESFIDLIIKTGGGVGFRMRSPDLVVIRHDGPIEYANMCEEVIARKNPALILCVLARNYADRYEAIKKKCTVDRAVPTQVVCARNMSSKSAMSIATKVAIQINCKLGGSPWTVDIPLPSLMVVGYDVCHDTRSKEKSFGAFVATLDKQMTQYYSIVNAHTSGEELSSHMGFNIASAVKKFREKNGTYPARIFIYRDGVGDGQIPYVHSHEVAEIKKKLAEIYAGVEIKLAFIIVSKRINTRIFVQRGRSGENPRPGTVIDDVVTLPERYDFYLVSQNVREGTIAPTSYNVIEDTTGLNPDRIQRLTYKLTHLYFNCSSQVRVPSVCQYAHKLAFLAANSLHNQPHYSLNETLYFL

B1: FLAG-Halo-Vasa (wild-type Bombyx mori Vasa) (enzyme, UniProt O01378 1-601, looked up)
chain: MDDDWDDSCEAVVVPPPPLQNHDSVDEGHSLSRGRGFPSFNEDDEKENGYGERRGRGGRGGGRGRGGRGGRGGSREQHSDYETNGDHDDRGRGERGRGRGRGGRGGGRGGGGGGGDRNDYEDNEIGENGETKKPVTYVPPEPTNDETEIFSSTISSGINFDKFDHIAVKVSGENPPRPIESFETANLRKYVLDNVLKAGYRKPTPIQKNAIPIIMSGRDLMGCAQTGSGKTAAFLVPIINMLLQDPKDLISENGCAQPQVIIVSPTRELTLQIFNEARKFSYGSVLKVAVAYGGTAVRHQGDNIARGCHILVATPGRLHDFVERNRVSFGSVRFVVLDEADRMLDMGFMPSIEKMMLHPTMVETTKRQTLMFSATFPEDIQHLAGRFLNNYLFVAVGIVGGASTDVEQIFIEVTKYEKRNSLKQLIEENDGKRILVFVETKRNADFIAAMLSEQQLLTSSIHGDRMQREREEALQNFKSGKHCILVATAVAARGLDIKNVDIVVNYDLPKSIDEYVHRIGRTGRVGNRGKAVSFYDSDQDLALVADLSKILRQADQSVPDFLKGGGTATFKGNKYGGSDVRNFNNANTAVVDQGQEPEEEW
modifications: TMR-labelled HaloTag ligand on the HaloTag; the immobilised copy in the aggregation measurement also labelled with Biotin-XX-NHS
notes: Vasa, ATP-dependent DEAD-box RNA helicase of Bombyx mori, wild type; Non-fluorescent Vasa was used only in RNA dissociation assays; also called WT-Vasa; TMR-Vasa; source: BmN4 cells, purified (anti-FLAG gel column); not shown: HaloTag, N-terminal, kept
In the case of B1, the “stoichiometry N” value [1] is reported as 2 and the binding result [2] is reported as “binds”.
